Results: patent publication US20210221885A1

Molecular target: Eu3+ cryptate labeled TIM3 (Cisbio kit, cat# 63ADK000CTLPEB) (human) (UniProt Q8TDQ0)
Assay: HTRF blocking assay (Cisbio kit), antibody added to a mixture of Tim3-EuK and Tag-Gal9; blocked ligand galectin-9; the unit is that of the concentration axis

Sequence of Eu3+ cryptate labeled TIM3 (Cisbio kit, cat# 63ADK000CTLPEB) (human) (Q8TDQ0 22-202 limits assumed): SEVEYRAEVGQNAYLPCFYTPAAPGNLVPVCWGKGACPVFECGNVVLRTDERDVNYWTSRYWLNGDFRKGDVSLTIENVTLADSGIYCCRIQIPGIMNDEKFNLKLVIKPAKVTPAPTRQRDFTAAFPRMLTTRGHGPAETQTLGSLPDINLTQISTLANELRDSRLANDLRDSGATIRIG

- IC50: 5.74 nM
Substance: F38-2E2 (ebioscience, cat#16-3109-85) (antibody)
